Assay results as given in patent publication US12139520B2 (priority 2020, dated 2024).
Numbered stars: 1 amine (or outer) side, 2 acyl side, 3 side chain; on linkers, the order of the positions; unused ones are H or OH. Bridge positions count the residues as written; N and C are the ends. Square brackets hold non-standard residues; d marks the D form. Side chains are listed from the residue outwards. Ends that are not written are not given here. * marks the point of attachment. C20 diacid = O=C(O)CCCCCCCCCCCCCCCCCCC(=O)*; γGlu = O=C(O)[C@H](CCC(=O)[*:2])N[*:1]; Hyp = O=C(O)[C@@H]1C[C@@H](O)CN1; Cit = NC(=O)NCCC[C@H](N)C(=O)O; AEEA = NCCOCCOCC(=O)O

T1: hAMY3R (human, UniProt P30988)
T1 sequence 1: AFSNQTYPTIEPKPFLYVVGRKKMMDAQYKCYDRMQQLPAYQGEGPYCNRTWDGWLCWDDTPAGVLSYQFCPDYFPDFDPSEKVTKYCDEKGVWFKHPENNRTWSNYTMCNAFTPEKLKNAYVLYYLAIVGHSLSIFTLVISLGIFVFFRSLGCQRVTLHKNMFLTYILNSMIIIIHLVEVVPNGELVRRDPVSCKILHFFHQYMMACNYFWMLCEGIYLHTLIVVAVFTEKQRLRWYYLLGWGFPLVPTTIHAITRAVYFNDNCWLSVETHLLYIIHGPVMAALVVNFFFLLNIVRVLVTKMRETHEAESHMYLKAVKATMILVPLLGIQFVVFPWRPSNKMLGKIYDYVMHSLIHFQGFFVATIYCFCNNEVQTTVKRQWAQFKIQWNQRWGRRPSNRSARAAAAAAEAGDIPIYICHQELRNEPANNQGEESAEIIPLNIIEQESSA
T1 sequence 2: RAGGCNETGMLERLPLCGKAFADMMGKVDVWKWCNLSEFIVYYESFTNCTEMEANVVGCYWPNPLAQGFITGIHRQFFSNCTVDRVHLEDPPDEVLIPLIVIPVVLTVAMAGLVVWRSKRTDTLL


Key:
hAMY3R = target: T1, hAMY3R; assay: cell-based or functional assay
hAM1R = hAM1R (human, UniProt Q16602); assay: cell-based or functional assay

Binder | hAMY3R EC50 (cAMP) (hAMY3R) | hAM1R EC50 (cAMP) (hAM1R)
GCRIGTCTVQRLAHQIYQFTDKFKDNVAPRSKISPQT[Hyp]-NH2 (disulfide 2-7 (inferred); ends not checked) [SEQ ID NO: 147] | 0.04 nM | 3110 nM
{C20 diacid-γGlu}-KCNTATCTVDRLAHQIAQFTDKDKDPVAPPTNVGSNG[Hyp]-NH2 (disulfide 2-7 (inferred); ends not checked) [SEQ ID NO: 130] | 0.03 nM | > 5000 nM
GCRTGTCTVQRLAHQIYQFTDKDKDNVAPRTKVGPQG[Hyp]-NH2 (disulfide 2-7 (inferred); ends not checked) [SEQ ID NO: 143] | 0.038 nM | 2980 nM
{C20 diacid-γGlu}-KCNTATCTVARLAEQIYQFTDKDKDPVAPPTNVGSNG[Hyp]-NH2 (disulfide 2-7 (inferred); ends not checked) [SEQ ID NO: 133] | 0.031 nM | > 5000 nM
GCRFGTCTVQRLAHQIYQFTDKDKDNVAPRSKVGPQG[Hyp]-NH2 (disulfide 2-7 (inferred); ends not checked) [SEQ ID NO: 152] | 0.041 nM | 213 nM
KCNTATCATQRLANFLVHSSNNFGAILSSTNVGSNTY (ligand, disulfide 2-7) [hAMY1-37] | 0.01 nM | > 5000 nM
GCRTGTCTVQRLAHQIYQFTDKDKDNVAPRSKVGPNG[Hyp]-NH2 (disulfide 2-7 (inferred); ends not checked) [SEQ ID NO: 139] | 0.035 nM | 2980 nM
{C20 diacid-γGlu}-KCNTATCTVQ[Cit]LAEQIAQFTDKDKDNVAPPTNVGSNG[Hyp]-NH2 (disulfide 2-7 (inferred); ends not checked) [SEQ ID NO: 153] | 0.041 nM | > 5000 nM
KCNTATCTVQRLAHQIAQFTDKDKDNVAPPTNVGSNG[Hyp]-NH2 (disulfide 2-7 (inferred); ends not checked) [SEQ ID NO: 14] | 0.007 nM | > 5000 nM
KCNTATCTVQRLAEQIK([AEEA-AEEA-γGlu-C20 diacid])QFTDKDKDNVAPPTNVGSNG[Hyp]-NH2 (disulfide 2-7 (inferred); ends not checked) [SEQ ID NO: 136] | 0.033 nM | > 5000 nM
GCRTGTCTVQRLAHQIYQFTDKDKDNVAPRSNIGPNG[Hyp]-NH2 (disulfide 2-7 (inferred); ends not checked) [SEQ ID NO: 151] | 0.041 nM | 44.9 nM
GCRFGTCTVQRLAHQIYQFTDKDKDNVAPRSNVSPQG[Hyp]-NH2 (disulfide 2-7 (inferred); ends not checked) [SEQ ID NO: 145] | 0.039 nM | 2980 nM
{C20 diacid-γGlu}-KCNTATCTVQRLAEQIAQFTDKDKDPVAPPTNVGSNG[Hyp]-NH2 (disulfide 2-7 (inferred); ends not checked) [SEQ ID NO: 144] | 0.038 nM | > 5000 nM
GCRFGTCTVQRLAHQIYQFTDKDKDNVAPRTKISPQG[Hyp]-NH2 (disulfide 2-7 (inferred); ends not checked) [SEQ ID NO: 146] | 0.04 nM | 2980 nM
KCNTATCATQRLANFLVHSSNNFGAIAPSTKIGPNGY [SEQ ID NO: 128] | 0.028 nM | 130 nM
KCNTATCATQRLANFLVHSSNNFGAILPSTKVGPNGY [SEQ ID NO: 149] | 0.04 nM | > 5000 nM

Binder | hAMY3R EC50 (cAMP) (hAMY3R) | hAM1R EC50 (cAMP) (hAM1R)
KCNTATCATQRLANFLVHSSNNFGAILSSTKIGSNGY [SEQ ID NO: 148] | 0.04 nM | > 5000 nM
{C20 diacid-γGlu}-KCNTATCTVARLAHQINQFTDKDKDPVAPPTNVGSNG[Hyp]-NH2 (disulfide 2-7 (inferred); ends not checked) [SEQ ID NO: 137] | 0.034 nM | > 5000 nM
KCNTSTCTVARLADQITQFSDKDKANVSPPTEVGPNS[Hyp]-NH2 (disulfide 2-7 (inferred); ends not checked) [SEQ ID NO: 15] | 0.007 nM | > 5000 nM
GCRFGTCTVQRLAHQIYQFTDKDKDNVAPRTNISPQGY [SEQ ID NO: 140] | 0.036 nM | 31.4 nM
GCRFGTCTVQRLAHQIYQFTDKDKDNVAPRSNVGPQG[Hyp]-NH2 (disulfide 2-7 (inferred); ends not checked) [SEQ ID NO: 135] | 0.033 nM | 68.4 nM
GCRTGTCTVQRLAHQIYQFTDKDKDNVAPRSKVGPQGY [SEQ ID NO: 129] | 0.029 nM | 367 nM
GCRTGTCTVQRLAHQIYQFTDKDKDNVAPRTNIGPNGY [SEQ ID NO: 142] | 0.036 nM | 2980 nM
GCRTGTCTVQRLAHQIYQFTDKDKDNVAPRSNVGPQGY [SEQ ID NO: 138] | 0.035 nM | 2980 nM
GCRFGTCTVQRLAHQIYQFTDKDKDNVAPRSKISPQGY [SEQ ID NO: 154] | 0.042 nM | 2980 nM
GCRFGTCTVQRLAHQIYQFTDKDKDNVAPRTKVSPQGY [SEQ ID NO: 155] | 0.045 nM | 116 nM
GCRFGTCTVQRLAHQIYQFTDKDKDNVAPRSNVSPQGY [SEQ ID NO: 131] | 0.031 nM | 33.8 nM
GCRFGTCTVQRLAHQIYQFTDKDKDNVAPRTKVSPQG[Hyp]-NH2 (disulfide 2-7 (inferred); ends not checked) [SEQ ID NO: 132] | 0.031 nM | 2980 nM
GCRFGTCTVQRLAHQIYQFTDKDKDNVAPRSKIGPQG[Hyp]-NH2 (disulfide 2-7 (inferred); ends not checked) [SEQ ID NO: 127] | 0.028 nM | 107 nM
GCRFGTCTVQRLAHQIYQFTDKDKDNVAPRTKVSPNG[Hyp]-NH2 (disulfide 2-7 (inferred); ends not checked) [SEQ ID NO: 134] | 0.032 nM | 2980 nM
GCRFGTCTVQRLAHQIYQFTDKDKDNVAPRTNISPQG[Hyp]-NH2 (disulfide 2-7 (inferred); ends not checked) [SEQ ID NO: 141] | 0.036 nM | 258 nM
GCRWGTCTVQRLAHQIYQFTDKDKDNVAPRSKISPQT[Hyp]-NH2 (disulfide 2-7 (inferred); ends not checked) [SEQ ID NO: 150] | 0.04 nM | > 5000 nM
